Assays:
Test in all cases: cell-based or functional assay
Mer(h) = molecular target: T1, Mer(h) (human, UniProt Q12866 578-872, limits assumed)
T1 sequence (looked up): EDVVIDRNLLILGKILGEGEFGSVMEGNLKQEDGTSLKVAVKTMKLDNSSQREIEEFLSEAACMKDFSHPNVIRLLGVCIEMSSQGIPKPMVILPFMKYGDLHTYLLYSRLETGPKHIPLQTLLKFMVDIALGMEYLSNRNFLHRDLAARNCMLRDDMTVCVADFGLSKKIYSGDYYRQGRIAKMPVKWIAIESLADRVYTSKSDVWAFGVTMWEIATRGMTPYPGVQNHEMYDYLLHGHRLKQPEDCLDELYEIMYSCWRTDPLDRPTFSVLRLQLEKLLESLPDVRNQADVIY

IKKβ(h) = molecular target: T2, IKKβ(h) (human, UniProt O14920 1-756)
T2 sequence (looked up): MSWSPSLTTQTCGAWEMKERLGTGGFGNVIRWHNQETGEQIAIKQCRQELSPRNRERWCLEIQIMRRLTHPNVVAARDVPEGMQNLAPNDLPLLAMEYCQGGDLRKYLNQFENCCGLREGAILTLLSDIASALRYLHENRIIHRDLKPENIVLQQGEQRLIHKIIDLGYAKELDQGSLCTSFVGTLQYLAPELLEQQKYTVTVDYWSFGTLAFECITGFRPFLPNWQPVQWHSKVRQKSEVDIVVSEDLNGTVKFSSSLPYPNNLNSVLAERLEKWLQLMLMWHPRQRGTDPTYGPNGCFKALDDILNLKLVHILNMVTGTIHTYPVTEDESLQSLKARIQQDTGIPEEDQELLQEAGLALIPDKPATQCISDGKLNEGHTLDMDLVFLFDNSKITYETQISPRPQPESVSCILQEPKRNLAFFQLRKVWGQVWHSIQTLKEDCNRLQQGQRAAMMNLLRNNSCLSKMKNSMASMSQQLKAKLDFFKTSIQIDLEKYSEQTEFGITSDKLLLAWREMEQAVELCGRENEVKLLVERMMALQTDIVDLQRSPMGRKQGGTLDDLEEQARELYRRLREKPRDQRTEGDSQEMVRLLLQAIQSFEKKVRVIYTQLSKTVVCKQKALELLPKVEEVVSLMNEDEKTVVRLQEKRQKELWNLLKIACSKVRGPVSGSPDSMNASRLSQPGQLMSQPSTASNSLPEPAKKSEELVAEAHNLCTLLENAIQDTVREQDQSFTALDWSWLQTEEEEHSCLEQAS

CaMKIIβ(h) = CaMKIIβ(h) (human, UniProt Q13554 1-666)
EphB2(h) = molecular target: T3, EphB2(h) (human, UniProt P29323 565-986, limits assumed)
T3 sequence (looked up): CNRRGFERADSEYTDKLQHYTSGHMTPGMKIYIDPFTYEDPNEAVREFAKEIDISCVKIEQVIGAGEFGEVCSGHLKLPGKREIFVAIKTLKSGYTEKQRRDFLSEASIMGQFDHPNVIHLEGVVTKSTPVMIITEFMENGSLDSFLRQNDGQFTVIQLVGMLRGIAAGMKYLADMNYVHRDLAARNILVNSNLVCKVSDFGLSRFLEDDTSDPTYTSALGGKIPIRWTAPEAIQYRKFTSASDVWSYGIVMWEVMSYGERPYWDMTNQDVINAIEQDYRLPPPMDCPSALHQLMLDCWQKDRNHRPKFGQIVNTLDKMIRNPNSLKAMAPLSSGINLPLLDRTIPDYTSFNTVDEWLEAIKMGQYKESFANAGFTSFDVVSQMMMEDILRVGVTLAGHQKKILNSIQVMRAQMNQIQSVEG

FGFR3(h) = FGFR3(h) (human, UniProt P22607 397-806)
Met(Y1248C)(h) = Met(Y1248C)(h) (human, UniProt P08581-2 974-1408, limits assumed)
Ret(h) = molecular target: T4, Ret(h) (human, UniProt P07949 658-1114, limits assumed)
T4 sequence (looked up): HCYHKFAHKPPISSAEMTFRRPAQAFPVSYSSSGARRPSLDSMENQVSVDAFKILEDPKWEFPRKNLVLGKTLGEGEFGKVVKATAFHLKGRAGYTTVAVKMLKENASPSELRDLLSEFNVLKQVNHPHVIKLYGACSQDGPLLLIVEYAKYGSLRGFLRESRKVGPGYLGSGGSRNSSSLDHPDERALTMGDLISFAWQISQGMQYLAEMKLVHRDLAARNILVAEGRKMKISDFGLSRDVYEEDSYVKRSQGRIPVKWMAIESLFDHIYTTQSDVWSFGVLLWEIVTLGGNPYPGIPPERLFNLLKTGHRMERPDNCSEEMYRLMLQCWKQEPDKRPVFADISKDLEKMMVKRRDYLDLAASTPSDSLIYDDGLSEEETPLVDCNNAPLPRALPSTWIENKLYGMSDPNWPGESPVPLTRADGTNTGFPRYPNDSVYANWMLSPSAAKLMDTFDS

Tec(h)activated = molecular target: T5, Tec(h)activated (human, UniProt P42680 1-631, limits assumed)
T5 sequence (looked up): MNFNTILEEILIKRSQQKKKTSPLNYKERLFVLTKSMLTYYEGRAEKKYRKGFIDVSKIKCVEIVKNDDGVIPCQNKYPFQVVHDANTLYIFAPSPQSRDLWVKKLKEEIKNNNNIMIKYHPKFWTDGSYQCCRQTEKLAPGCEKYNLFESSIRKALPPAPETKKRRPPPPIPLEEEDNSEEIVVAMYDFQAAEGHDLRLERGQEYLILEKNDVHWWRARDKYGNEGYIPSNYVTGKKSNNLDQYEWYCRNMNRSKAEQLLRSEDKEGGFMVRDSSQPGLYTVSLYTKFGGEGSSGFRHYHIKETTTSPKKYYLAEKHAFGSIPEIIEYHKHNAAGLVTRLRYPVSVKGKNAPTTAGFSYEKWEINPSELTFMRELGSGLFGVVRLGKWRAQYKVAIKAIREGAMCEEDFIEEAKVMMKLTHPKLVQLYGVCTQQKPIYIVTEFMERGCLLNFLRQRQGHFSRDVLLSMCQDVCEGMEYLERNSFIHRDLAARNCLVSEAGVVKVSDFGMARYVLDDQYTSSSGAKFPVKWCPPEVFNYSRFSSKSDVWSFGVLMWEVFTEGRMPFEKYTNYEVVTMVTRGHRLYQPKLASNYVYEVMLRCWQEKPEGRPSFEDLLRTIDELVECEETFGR

MAPK1(h) = MAPK1(h) (human, UniProt P28482 1-360, limits assumed)
PKBα(h) = PKBα(h) (human, UniProt P31749 1-480, limits assumed)
Sequence of PKBα(h) (P31749 whole entry): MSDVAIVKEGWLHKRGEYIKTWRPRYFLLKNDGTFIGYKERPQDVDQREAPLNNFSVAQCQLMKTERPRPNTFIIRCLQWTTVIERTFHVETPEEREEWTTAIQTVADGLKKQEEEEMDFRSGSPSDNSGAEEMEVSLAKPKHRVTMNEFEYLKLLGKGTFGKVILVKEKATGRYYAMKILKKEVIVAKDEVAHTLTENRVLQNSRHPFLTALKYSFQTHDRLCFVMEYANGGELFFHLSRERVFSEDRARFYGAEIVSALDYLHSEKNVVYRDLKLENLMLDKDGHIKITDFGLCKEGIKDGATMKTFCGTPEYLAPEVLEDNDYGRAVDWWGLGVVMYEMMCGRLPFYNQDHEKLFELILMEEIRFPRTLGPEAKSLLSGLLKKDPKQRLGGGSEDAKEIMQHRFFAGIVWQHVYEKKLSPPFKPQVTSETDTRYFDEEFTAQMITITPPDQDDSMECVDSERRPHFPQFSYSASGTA

Sequence of FGFR3(h) (P22607 397-806 limits assumed): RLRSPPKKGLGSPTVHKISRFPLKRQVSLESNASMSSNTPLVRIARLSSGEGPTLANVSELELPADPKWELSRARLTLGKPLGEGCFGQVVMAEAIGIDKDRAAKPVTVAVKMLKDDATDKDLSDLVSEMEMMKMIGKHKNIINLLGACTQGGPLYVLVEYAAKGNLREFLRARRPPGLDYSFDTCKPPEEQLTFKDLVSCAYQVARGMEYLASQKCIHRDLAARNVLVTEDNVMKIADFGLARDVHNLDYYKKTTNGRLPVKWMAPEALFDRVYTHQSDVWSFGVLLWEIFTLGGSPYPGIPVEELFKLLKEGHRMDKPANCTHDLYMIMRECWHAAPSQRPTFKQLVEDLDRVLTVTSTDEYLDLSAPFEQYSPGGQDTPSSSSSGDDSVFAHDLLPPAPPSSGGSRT
Sequence of CaMKIIβ(h) (Q13554 whole entry): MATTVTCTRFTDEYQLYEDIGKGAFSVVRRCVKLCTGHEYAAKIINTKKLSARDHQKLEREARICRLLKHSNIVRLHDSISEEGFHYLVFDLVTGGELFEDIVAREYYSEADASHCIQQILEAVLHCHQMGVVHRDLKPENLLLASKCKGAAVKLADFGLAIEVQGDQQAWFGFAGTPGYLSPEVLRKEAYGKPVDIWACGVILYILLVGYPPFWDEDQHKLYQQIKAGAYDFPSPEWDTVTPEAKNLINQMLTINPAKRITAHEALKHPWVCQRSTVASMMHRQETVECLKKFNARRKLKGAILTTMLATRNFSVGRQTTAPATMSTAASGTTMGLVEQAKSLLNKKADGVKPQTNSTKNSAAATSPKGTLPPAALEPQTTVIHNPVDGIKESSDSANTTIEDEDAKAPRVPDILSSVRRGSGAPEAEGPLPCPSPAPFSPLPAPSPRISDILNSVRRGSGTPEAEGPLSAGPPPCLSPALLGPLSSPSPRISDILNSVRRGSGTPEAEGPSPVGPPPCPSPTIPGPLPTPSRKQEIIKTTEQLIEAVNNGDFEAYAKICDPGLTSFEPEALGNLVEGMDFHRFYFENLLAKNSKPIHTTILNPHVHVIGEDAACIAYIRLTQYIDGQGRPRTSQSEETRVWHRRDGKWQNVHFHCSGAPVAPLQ
Sequence of MAPK1(h) (P28482 whole entry): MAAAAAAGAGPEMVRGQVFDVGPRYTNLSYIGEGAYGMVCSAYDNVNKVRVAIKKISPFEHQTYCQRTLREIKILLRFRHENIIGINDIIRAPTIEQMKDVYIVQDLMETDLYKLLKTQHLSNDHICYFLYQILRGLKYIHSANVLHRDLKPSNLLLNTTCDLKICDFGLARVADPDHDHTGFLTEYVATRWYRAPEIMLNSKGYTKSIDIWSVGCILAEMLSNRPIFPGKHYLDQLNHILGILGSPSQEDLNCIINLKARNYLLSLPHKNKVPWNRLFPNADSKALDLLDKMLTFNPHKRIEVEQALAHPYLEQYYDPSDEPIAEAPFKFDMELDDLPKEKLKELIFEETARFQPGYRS

**Q.** How did the “% activity, 100 µM” value (Mer(h)) turn out when FAKLAARLYRKALARQLGVAA [MMI-0300] was run?
**A.** The value was 52%.

**Q.** What about the “% activity, 100 µM” value (IKKβ(h)) of the same binder?
**A.** Its value is 84%.

**Q.** And the “% activity, 100 µM” value (CaMKIIβ(h))?
**A.** Its value is 2%.

**Q.** And the “% activity, 100 µM” value (EphB2(h))?
**A.** The value was 18%.

**Q.** What about the “% activity, 100 µM” value (FGFR3(h)) of the same binder?
**A.** The value was 102%.

**Q.** And the “% activity, 100 µM” value (Met(Y1248C)(h))?
**A.** The value was 84%.

**Q.** And the “% activity, 100 µM” value (Ret(h))?
**A.** The value was 140%.

**Q.** What about the “% activity, 100 µM” value (Tec(h)activated) of the same binder?
**A.** Its value is 56%.

**Q.** What about the “% activity, 100 µM” value (MAPK1(h)) of the same binder?
**A.** The value was 107%.

**Q.** What about the “% activity, 100 µM” value (PKBα(h)) of the same binder?
**A.** The value was 57%.

**Q.** Which results are given for KAFAKLAARLYRKALARQLGVAA [MMI-0400]?
**A.** % activity, 100 µM (Mer(h)): 50%; % activity, 100 µM (IKKβ(h)): 84%; % activity, 100 µM (CaMKIIβ(h)): 11%; % activity, 100 µM (EphB2(h)): 22%; % activity, 100 µM (FGFR3(h)): 0%; % activity, 100 µM (Met(Y1248C)(h)): 36%; % activity, 100 µM (Ret(h)): 145%; % activity, 100 µM (Tec(h)activated): 29%; % activity, 100 µM (MAPK1(h)): 100%; % activity, 100 µM (PKBα(h)): 67%
